Measured values reported in patent US20260317426 (published 2026).

Key:
MICB*004 ECD = biological target: T1, MICB*004 ECD (human, UniProt Q29980); experiment: BLI, monovalent
T1 chain: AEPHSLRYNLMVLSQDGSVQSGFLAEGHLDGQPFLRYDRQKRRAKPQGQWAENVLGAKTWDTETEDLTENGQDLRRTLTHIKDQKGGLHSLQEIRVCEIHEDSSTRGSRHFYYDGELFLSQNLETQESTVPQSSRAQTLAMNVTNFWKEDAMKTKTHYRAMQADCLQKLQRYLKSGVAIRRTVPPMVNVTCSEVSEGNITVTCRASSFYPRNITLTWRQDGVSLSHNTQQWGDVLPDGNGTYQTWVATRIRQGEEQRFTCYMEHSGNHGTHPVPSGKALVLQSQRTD

[1] = biological target: T2, MICA ECD (alleles *001, *002, *004, *008) (human, UniProt Q29983); experiment: BLI, monovalent, lowest of MICA alleles
T2 chain: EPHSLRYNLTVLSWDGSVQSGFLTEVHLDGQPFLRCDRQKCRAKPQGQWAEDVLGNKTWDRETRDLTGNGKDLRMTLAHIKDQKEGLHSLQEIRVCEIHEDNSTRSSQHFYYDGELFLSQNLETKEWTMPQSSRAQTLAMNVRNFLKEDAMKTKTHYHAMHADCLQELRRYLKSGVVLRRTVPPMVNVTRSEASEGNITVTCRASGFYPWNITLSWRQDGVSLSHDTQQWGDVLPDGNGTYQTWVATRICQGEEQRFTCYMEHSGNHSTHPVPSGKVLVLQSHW

Kd (MICB*004 ECD): 11.4 nM
Kd [1]: 0.77 nM
B1: CLN-619 (3F9H1L3L) (antibody, V domains shown)
VH: QVQLVESGGGLVKPGGSLRLSCAASGFTFSNYAMSWIRQAPGKGLEWVSYISPGGDYIYYADSVKGRFTISRDNAKNSLYLQMNSLRAEDTAVYYCTTDRRHYGSYAMDYWGQGTLVTVSS
VL: DIVMTQSPLSLPVTPGEPASISCRSSKSLLHSNLNTYLYWFLQKPGQSPQILIYRMSNLASGVPDRFSGSGSGTAFTLKISRVEAEDVGVYYCMQHLEYPFTFGPGTKLEIKR
